According to US20240336656A1 (Bicycle, published 2024):
Starred links: 1 amine or outer side, 2 acyl side, 3 side chain; linkers in the order of their positions; H or OH if unused. Positions of bridges follow the written chain, without caps; N, C: chain ends. Non-standard residues stand in square brackets, D forms with d. Chains are numbered I, II in the order given. No end group written: not given here. PYA = 4-pentynoic acid on Lys NZ, clicked (triazole) to linker azide; TATA = O=C(CC[*:1])N1CN(C(=O)CC[*:2])CN(C(=O)CC[*:3])C1; 1Nal = N[C@@H](Cc1cccc2ccccc12)C(=O)O; Hyp = O=C(O)[C@@H]1C[C@@H](O)CN1; hArg = N=C(N)NCCCC[C@H](N)C(=O)O; tBuAla = CC(C)(C)C[C@H](N)C(=O)O; Nle = CCCC[C@H](N)C(=O)O

Columns and labels:
CD137 (TNFRSF9) on cells [1] = molecular target: T1, CD137 (TNFRSF9) on cells (human, UniProt Q07011 24-255); experiment: cell-based or functional assay
T1 sequence (Q07011 24-255): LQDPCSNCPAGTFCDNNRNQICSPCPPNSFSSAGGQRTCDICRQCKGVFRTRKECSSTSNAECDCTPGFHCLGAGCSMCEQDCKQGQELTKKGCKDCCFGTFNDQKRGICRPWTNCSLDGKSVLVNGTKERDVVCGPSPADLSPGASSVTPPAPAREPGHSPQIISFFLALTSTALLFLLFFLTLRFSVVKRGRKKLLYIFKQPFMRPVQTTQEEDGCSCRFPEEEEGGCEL

CD137 (TNFRSF9) on cells [2] = molecular target: T1, CD137 (TNFRSF9) on cells; experiment: cell-based or functional assay; remark: listed apart in the source

B1: BCY11863 (peptide)
peptide 1: {N‑(acid-PEG3)‑N‑bis(PEG3-azide)}-CP[1Nal][dD]CM[hArg]DWSTP[Hyp]WC
peptide 2: Ac-C[tBuAla]PE[dK](PYA)PYCFADPY[Nle]CA
modifications: linker I:1-I:5-I:15, II:1-II:8-II:15 via TATA; also: heterotandem: one BCY8116 (chain 1) joined through N-(acid-PEG3)-N-bis(PEG3-azide) linker to two BCY8928 (chain 2), triazole via D-Lys(PYA)
EC50 of IFNγ secretion, human PBMC co-culture with 4T1-D02 (mouse) (CD137 (TNFRSF9) on cells [1]): 0.04 nM | EC50 of IFNγ secretion, human PBMC co-culture with H322 (human) (CD137 (TNFRSF9) on cells [1]): 0.85 nM | EC50 of IFNγ secretion, human PBMC co-culture with MC38 # 13 (mouse) (CD137 (TNFRSF9) on cells [1]): 0.17 nM | EC50 of IFNγ secretion, human PBMC co-culture with T-47D (human) (CD137 (TNFRSF9) on cells [1]): 0.08 nM | EC50 of IL-2 secretion, human PBMC co-culture with 4T1-D02 (mouse) (CD137 (TNFRSF9) on cells [1]): 0.16 nM | EC50 of IL-2 secretion, human PBMC co-culture with H322 (human) (CD137 (TNFRSF9) on cells [1]): 0.84 nM | EC50 of IL-2 secretion, human PBMC co-culture with HT1376 (human) (CD137 (TNFRSF9) on cells [1]): 0.39 nM | EC50 of IL-2 secretion, human PBMC co-culture with MC38 # 13 (mouse) (CD137 (TNFRSF9) on cells [1]): 0.25 nM | EC50 of IL-2 secretion, human PBMC co-culture with T-47D (human) (CD137 (TNFRSF9) on cells [1]): 0.2 nM | EC50 (nM) of fold induction over background, CD137 reporter assay, coculture with CT26#7 (mouse) (CD137 (TNFRSF9) on cells [2]): 0.14 nM | EC50 (nM) of fold induction over background, CD137 reporter assay, coculture with HT1376 (human) (CD137 (TNFRSF9) on cells [2]): 0.52 nM | EC50 (nM) of fold induction over background, CD137 reporter assay, coculture with MC38#13 (mouse) (CD137 (TNFRSF9) on cells [2]): 0.31 nM | EC50 (nM) of fold induction over background, CD137 reporter assay, coculture with MDA-MB-468 (human) (CD137 (TNFRSF9) on cells [2]): 0.23 nM | EC50 (nM) of fold induction over background, CD137 reporter assay, coculture with NCI-H292 (human) (CD137 (TNFRSF9) on cells [2]): 0.28 nM | EC50 (nM) of fold induction over background, CD137 reporter assay, coculture with NCI-H322 (human) (CD137 (TNFRSF9) on cells [2]): 0.33 nM | EC50 (nM) of fold induction over background, CD137 reporter assay, coculture with T47D (human) (CD137 (TNFRSF9) on cells [2]): 0.42 nM
